Data published in patent publication US20040023255.

System: microtubules

HsKip3d M1-S357 protein
Km for microtubule stimulation (coupled PK/LDH microtubule-stimulated ATPase assay, Michaelis-Menten fit): a Km for microtubule stimulation of 0.2 µM
